{
  "source": "paper PMC13381803",
  "about": "“Phage-encoded factor stimulates DNA degradation by the Hna anti-phage defense system” (Nature Communications, 2026)",
  "key": {"[1]": {"biological_target": "Hna with a C-terminal GFP tag", "assay": "fluorescence anisotropy", "details": "read off a plot"}, "[2]": {"biological_target": "Hna (helicase-nuclease abortive infection), wild type, Sinorhizobium meliloti", "assay": "fluorescence anisotropy competition", "details": "in the presence of ATP; cold SSB added to the saturated Hna/GFP-SSB heterodimer; value read at the highest cold SSB concentration (about 2e3 nM); lower …; parent: est. 75; read off a plot"}, "[3]": {"biological_target": "5 A SSB escape mutant E49A (phage 5 A (T7-like podovirus))", "assay": "native gel or EMSA; native stoichiometry of wild-type 5 A SSB and escape mutants in the absence of DNA; each protein allowed to oligomerize for 1 hour; non-denaturing 4-20% Tris-glycine gel, 4 °C; part of the wild-type sample melted at 95 °C for the monomeric state"}, "[4]": {"biological_target": "5 A SSB escape mutant E38K (phage 5 A (T7-like podovirus))", "assay": "native gel or EMSA; native stoichiometry of wild-type 5 A SSB and escape mutants in the absence of DNA; each protein allowed to oligomerize for 1 hour; non-denaturing 4-20% Tris-glycine gel, 4 °C; part of the wild-type sample melted at 95 °C for the monomeric state"}, "[5]": {"biological_target": "phage-encoded single-stranded DNA-binding protein of phage 5 A (5 A SSB), wild type (phage 5 A (T7-like podovirus))", "assay": "native gel or EMSA; native stoichiometry of wild-type 5 A SSB and escape mutants in the absence of DNA; each protein allowed to oligomerize for 1 hour; non-denaturing 4-20% Tris-glycine gel, 4 °C; part of the wild-type sample melted at 95 °C for the monomeric state"}, "[6]": {"biological_target": "5 A SSB escape mutant E201K (phage 5 A (T7-like podovirus))", "assay": "native gel or EMSA; native stoichiometry of wild-type 5 A SSB and escape mutants in the absence of DNA; each protein allowed to oligomerize for 1 hour; non-denaturing 4-20% Tris-glycine gel, 4 °C; part of the wild-type sample melted at 95 °C for the monomeric state"}, "[7]": {"biological_target": "Hna (helicase-nuclease abortive infection), wild type, Sinorhizobium meliloti (Sinorhizobium meliloti)"}, "[8]": {"details": "saturating GFP-Hna homodimer, value read at the highest SSB concentration (about 2e4 nM), starting anisotropy about 100-110 mA, lower anisotropy = more …, parent: est. 22"}},
  "data": [
    {"substance": "phage-encoded single-stranded DNA-binding protein of phage 5 A (5 A SSB), wild type E49A", "values": [
      {"measurement": "response", "setting": "[1]; [8]", "result": 65, "unit": "mA"}
    ]},
    {"substance": "phage-encoded single-stranded DNA-binding protein of phage 5 A (5 A SSB), wild type E38K", "values": [
      {"measurement": "response", "setting": "[1]; [8]", "result": 99, "unit": "mA"}
    ]},
    {"substance": "phage-encoded single-stranded DNA-binding protein of phage 5 A (5 A SSB), wild type E201K", "values": [
      {"measurement": "response", "setting": "[2]", "result": 130, "unit": "mA"},
      {"measurement": "response", "setting": "[1]; [8]", "result": 110, "unit": "mA"}
    ]},
    {"substance": "5 A SSB escape mutant E49A (natural protein)", "values": [
      {"measurement": "stoichiometry N", "setting": "[3]", "result": 2}
    ]},
    {"substance": "5 A SSB escape mutant E38K (natural protein)", "values": [
      {"measurement": "stoichiometry N", "setting": "[4]", "result": 4}
    ]},
    {"substance": "phage-encoded single-stranded DNA-binding protein of phage 5 A (5 A SSB), wild type (natural protein)", "values": [
      {"measurement": "stoichiometry N", "setting": "[5]", "result": 2}
    ]},
    {"substance": "5 A SSB escape mutant E201K (natural protein)", "values": [
      {"measurement": "stoichiometry N", "setting": "[6]", "result": 4}
    ]},
    {"substance": "Hna (helicase-nuclease abortive infection), wild type, Sinorhizobium meliloti (enzyme)", "values": [
      {"measurement": "ssDNA cleavage rate of the Hna dimer mutant (T30A/D31A/P34A) compared to wild-type Hna, capillary electrophoresis", "setting": "[7]", "result": "> 10", "unit": "fold"}
    ]},
    {"substance": "Hna (helicase-nuclease abortive infection), wild type, Sinorhizobium meliloti T30A; D31A; P34A", "values": [
      {"measurement": "response", "setting": "[1]; +ATP, GFP-Hna at fixed concentration, value is the plateau of the fitted curve at high cold Hna concentration, parent: est. 98", "result": 10, "unit": "mA"}
    ]}
  ]
}
